The source of these data is article PMC4489214.

For this assay, the target named is LRRTM2 expressed on K562 cells (mouse) (UniProt Q8BGA3). Nature of the assay: cell adhesion assay; K562 'prey' cells (NRX1-alpha variant, beta-Gal, RFP) mixed with biotinylated K562 'bait' cells (LRRTM2 or NL3(A2), AP-GFP, BirA-ER) on neutravidin magnetic beads; 60 min at RT in DMEM without serum; bound cells read by beta-Gal activity.
Sequence of UniProt Q8BGA3 (Q8BGA3 34-515): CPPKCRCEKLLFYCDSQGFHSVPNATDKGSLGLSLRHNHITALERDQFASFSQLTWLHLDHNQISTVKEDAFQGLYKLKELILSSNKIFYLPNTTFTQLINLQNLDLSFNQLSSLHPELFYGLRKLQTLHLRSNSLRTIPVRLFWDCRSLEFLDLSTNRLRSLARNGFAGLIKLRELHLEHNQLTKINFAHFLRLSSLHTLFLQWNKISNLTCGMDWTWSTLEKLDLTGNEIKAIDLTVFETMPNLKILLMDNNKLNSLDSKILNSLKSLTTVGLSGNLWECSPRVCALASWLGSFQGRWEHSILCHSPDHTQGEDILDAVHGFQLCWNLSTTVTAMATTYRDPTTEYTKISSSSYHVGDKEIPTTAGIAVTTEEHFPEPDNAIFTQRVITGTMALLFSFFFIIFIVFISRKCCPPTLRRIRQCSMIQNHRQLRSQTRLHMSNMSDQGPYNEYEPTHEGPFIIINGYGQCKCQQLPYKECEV

As to “NRX1alpha lacking the insertions at AS3 and AS6, expressed on K562 cells (from UniProt Q9CS84 31-1514) (receptor)”, the fold increase of adhesion against the AS6+ isoforms was 3 fold.
The substance “NRX1alpha with the insertion at AS3 and lacking the insertion at AS6, expressed on K562 cells (from UniProt Q9CS84 31-1514) (receptor)” yielded a fold increase of adhesion against the AS6+ isoforms of 3 fold.
